# Experimental data from patent US20210179686A1, “CELL SORTING SYSTEMS AND METHODS OF USE” (MEMORIAL SLOAN-KETTERING CANCER CENTER, priority 2018, published 2021).
# System: soluble CD28-Fc
# Assay: binding of soluble CD28-Fc by CD80 functionalized leucine zipper T cells
# Details: FIG. 21B
# Excerpt: CD80 (B7-1) molecule functionalized to present blocked capture leucine zipper, permitting magnetic sorting with FLAG-RR12EE345L leucine zipper. T cells were transduced with vectors encoding (a) FLAG-RR12EE345L iCaspase9 CD19-myc-CAR and (b) RR12EE345L linker EE12RR345L CD80 CD20-streptag-CAR. Next, cells were magnetically sorted with anti-FLAG magnetic beads.
molecule,measurement,value
"RR12EE345L linker EE12RR345L CD80: CD80 (B7-1) functionalized to present blocked capture leucine zipper, SEQ ID NO: 142 (protein) METDTLLLWVLLLWVPGSTGLEIRAAFLRQRNTALRTEVAELEQEVQRLENEVSQYETRYGPLGGGKGGGGSGGGGSGGGGSGGGSLEIEAAFLERENTALETRVAELRQRVQRLRNRVSQYRTRYGPLGGGKEFTGSTSGSGKPGSGEGSTKGVDEQLSKSVKDKVLLPCRYNSPHEDESEDRIYWQKHDKVVLSVIAGKLKVWPEYKNRTLYDNTTYSLIILGLVLSDRGTYSCVVQKKERGTYEVKHLALVKLSIKADFSTPNITESGNPSADTKRITCFASGGFPKPRFSWLENGRELPGINTTISQDPESELYTISSQLDFNTTRNHTIKCLIKYGDAHVSEDFTWEKPPEDPPDSKNTLVLFGAGFGAVITVVVIVVIIKCFCKHRSCFRRNEASRETNNSLTFGPEEALAEQTVFL",binding to soluble CD28-Fc,bound to soluble CD28-Fc
